{"source": "paper PMC2757994", "about": "(The Journal of Biological Chemistry, 2009)", "proteins": {"B1": {"name": "fibulin 5 fragment, residues 120–333 (cbEGFs 2–6) (domain or fragment, UniProt Q9UBX5 120-333, looked up)", "chain": "DESNQCVDVDECATDSHQCNPTQICINTEGGYTCSCTDGYWLLEGQCLDIDECRYGYCQQLCANVPGSYSCTCNPGFTLNEDGRSCQDVNECATENPCVQTCVNTYGSFICRCDPGYELEEDGVHCSDMDECSFSEFLCQHECVNQPGTYFCSCPPGYILLDDNRSCQDINECEHRNHTCNLQQTCYNLQGGFKCIDPIRCEEPYLRISDNRCM", "modifications": "N-glycosylated by the EBNA 293 cells (potential N-linked sites at residues 283 and 296)"}}, "molecular_target": "the molecule itself", "test": "SEC-MALS"}
{"protein": "B1", "values": [{"measurement": "stoichiometry N", "result": 2}]}
